Results published in patent US20220064294A1 (ARCUS BIOSCIENCES, published 2022).

T1: human TIGIT, full length, on cells (human, UniProt Q495A1 22-244)
T1 construct: also called hTIGIT; hTIGIT-CHO
T1 sequence: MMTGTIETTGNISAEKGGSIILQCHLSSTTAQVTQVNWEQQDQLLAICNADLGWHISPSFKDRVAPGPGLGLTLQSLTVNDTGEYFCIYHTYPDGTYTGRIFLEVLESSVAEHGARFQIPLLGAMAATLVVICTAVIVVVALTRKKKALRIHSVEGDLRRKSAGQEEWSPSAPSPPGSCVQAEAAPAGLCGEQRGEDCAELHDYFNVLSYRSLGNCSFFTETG

T2: soluble His-tagged TIGIT (Acro Biosystems, Cat #No. TIT-H52H3) (human, UniProt Q495A1 22-141)
T2 construct: Bought protein; also called His-tagged human TIGIT
T2 sequence (looked up): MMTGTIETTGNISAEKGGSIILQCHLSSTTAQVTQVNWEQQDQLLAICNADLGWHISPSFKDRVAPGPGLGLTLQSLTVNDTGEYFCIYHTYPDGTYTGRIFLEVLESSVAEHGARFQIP

T3: cTIGIT-His (cynomolgus monkey)
T3 construct: also called His-tagged cyno TIGIT protein extracellular domain; soluble cTIGIT-His
T3 chain: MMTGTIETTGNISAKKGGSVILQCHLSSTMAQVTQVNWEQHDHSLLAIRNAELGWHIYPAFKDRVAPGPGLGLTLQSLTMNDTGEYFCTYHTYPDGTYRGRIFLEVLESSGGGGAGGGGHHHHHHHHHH

T4: hTIGIT-His (human)
T4 construct: also called His-tagged human TIGIT protein extracellular domain; soluble hTIGIT-His
T4 chain: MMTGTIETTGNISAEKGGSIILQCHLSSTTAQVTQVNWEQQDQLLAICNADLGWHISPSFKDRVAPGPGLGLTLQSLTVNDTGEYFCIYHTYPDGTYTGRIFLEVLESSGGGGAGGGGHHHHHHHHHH


How the values were obtained:
[1] = biological target: T1, human TIGIT, full length, on cells; assay: flow cytometry, inhibition of hCD155-hFc binding to hTIGIT-CHO-K1 cells
Procedure: (§1) These clones were further expanded, and antibodies were purified using a Protein G column. These purified antibodies were tested for binding to human and cyno TIGIT expressed on cell surface by flow cytometry. Stable CHO-K1 cell lines expressing full length human TIGIT clone 2A7 (Swiss-Prot Q495A1; SEQ ID NO: 80) or full length cyno TIGIT clone C10 (Swiss-Prot A0A2K5UW92; SEQ ID NO: 84) were developed. For the flow assay, cells were collected and incubated in 100 μL of HBSS buffer in the presence (or absence) of various concentrations of antibodies for 1 hr at 4° C. After washing with HBSS, antibody binding on cells was detected with 2 μg/mL of Alexa488-labeled goat anti-mouse IgG antibody (ThermoFisher Scientific, Cat #A-11001) for 30 min at 4° C. Cells were then washed and resuspended in PBS and subjected to flow cytometry using an Attune NxT flow cytometer (ThermoFisher Scientific, Waltham, Mass.). The geometric mean of the fluorescence intensity was obtained for the whole single cell population. Antibodies capable of binding to both human and cyno TIGIT expressed on cell surface were further tested for their blocking activity against recombinant human CD155 binding to human TIGIT on the surface of CHO cells. CHO-hTIGIT cells (10⁵ cells) were incubated with 2.5 μg/mL hCD155-Fc protein in the presence of various concentrations of antibody at room temperature for 1 hr. […] Cells were then washed and subjected to flow cytometry analysis.
(§2) The binding capability of these chimera anti-TIGIT antibodies to cell surface overexpressed human and cyno TIGIT was confirmed utilizing the flow cytometry assay previously described. After incubation of chimera anti-TIGIT antibody with hTIGIT-CHO or cTIGIT-CHO, bound antibody was detected using Alexa488 conjugated goat anti-human IgG antibody (ThermoFisher Scientific, Cat #A-11013). Antibody functional activity in inhibiting recombinant hCD155-hFc binding to hTIGIT-CHO-K1 cells was also determined using flow assay as previously described.

[2] = biological target: T2, soluble His-tagged TIGIT (Acro …); assay: SPR, ProteOn XPR36, antibody on Protein A chip, soluble His-tagged TIGIT as analyte, 25 C
Procedure: The kinetic binding of these recombinant anti-TIGIT antibodies to human TIGIT was determined by surface plasmon resonance (SPR) using a Bio-Rad ProteOn XPR36 instrument. Recombinant antibodies were immobilized using a Protein A coated GLC sensor chip, and soluble His-tagged TIGIT (Acro Biosystems, Cat #No. TIT-H52H3) was used as the analyte. The binding constants were determined at 25° C.

[3] = biological target: T1, human TIGIT, full length, on cells; assay: flow cytometry, endogenous TIGIT on isolated human CD4+ T cells
Procedure: (§3) The ability of chimera anti-TIGIT antibodies to bind to endogenously expressed TIGIT on isolated human CD4⁺ and CD8⁺ cells was tested using a flow cytometry assay. Human CD4⁺ or CD8⁺ T cells were isolated from human whole blood using RosetteSep™ Human CD4⁺ T cell Enrichment Cocktail (Stemcell, Cat #15022) or Human CD8⁺ T cell enrichment Cocktail (Stemcell, […]), respectively. […] However, differences in max binding activity (MFImax) was observed between clones.

[4] = biological target: T5, cynomolgus monkey TIGIT, full length, on cells (cynomolgus monkey); assay: flow cytometry on cTIGIT-CHO cells
T5 construct: Whole entry of 312 amino acids; also called cyno TIGIT; cTIGIT
Procedure: as §1, §2

[5] = biological target: T1, human TIGIT, full length, on cells; assay: flow cytometry, endogenous TIGIT on isolated human CD8+ T cells
Procedure: as §3

[6] = biological target: T1, human TIGIT, full length, on cells; assay: flow cytometry on hTIGIT-CHO cells
Procedure: as §1, §2

cTIGIT-His = biological target: T3, cTIGIT-His; assay: SPR, Biacore T200, antibody captured on anti-human IgG chip, cTIGIT-His as analyte
Procedure: (§4) The purified, full-length antibodies Hu24F8.1-IgG1.AA (containing VH1+VL2) and Hu24F8.2-IgG1.AA (containing VH2+VL2), together with the full-length chimera antibody of 24F8 mouse VH+VL and human IgG1/kappa constant domains (Ch24F8), were analyzed by SPR using a Biacore T200 instrument with antibody capture using an anti-human IgG coated chip and soluble hTIGIT-His or cTIGIT-His as the analyte.

hTIGIT-His = biological target: T4, hTIGIT-His; assay: SPR, Biacore T200, antibody captured on anti-human IgG chip, hTIGIT-His as analyte
Procedure: as §4

| Binder | IC50 [1] [nM] | Kd [2] [nM] | koff [2] [s⁻¹] | kon [2] [M⁻¹ s⁻¹] | CD4+ MFImax [3] [MFI] | EC50 [3] [nM] | EC50 [4] [nM] | CD8+ MFImax [5] [MFI] | EC50 [5] [nM] | EC50 [6] [nM] | Kd (cTIGIT-His) [nM] | koff (cTIGIT-His) [s⁻¹] | kon (cTIGIT-His) [M⁻¹ s⁻¹] | Kd (hTIGIT-His) [nM] | koff (hTIGIT-His) [s⁻¹] | kon (hTIGIT-His) [M⁻¹ s⁻¹] |
| --- | --- | --- | --- | --- | --- | --- | --- | --- | --- | --- | --- | --- | --- | --- | --- | --- |
| Ch24F8 (antibody, human IgG1, V domains shown, also called full-length chimera antibody of 24F8 mouse VH+VL and human IgG1/kappa constant domains) VH: DVQLQESGPDLVKPSQSLSLTCTVTGYSITSGYSWHWIRQFPGNKLDWMGYVHYSGSTNYNPSLKSRISITRDTSKNQFFLQLNSVTTEDTATFYCARMDYGNYGGAMDYWGQGTSVTVSS VL: EIVMTQSHKFMSTSVGDRVSITCKASQDVRTAVAWYQQKPGQSPKLLIYSASYRYTGVPDRFTGSGSGTDFTFTISSVQAEDLAVYYCQQYYSTQWTFGGGTKLEIK | 0.62 | 0.035 | 7.5e-05 | 2.15e+06 | 210 | 0.13 | 0.199 | 5800 | 0.177 | 0.15 | 1.66 | 0.00109 | 658000 | 0.183 | 0.000156 | 853000 |
| Ch30M18 (antibody, human IgG1, V domains shown, also called recombinant anti-TIGIT mouse/human chimera antibody 30M18) VH: EVQLQQSGPELVKPGASVKISCKTSGYTFTEYTMHWVKQSHGKSLEWIGGINPNNGGTSYNQKFKGKATLTVDKSSSTAYMELRSLTSEDSAVYYCARSGHMDYGYVYWGQGTTLTVSS VL: DIVMTQSHKFMSTSVGDRVSITCKASQYVSTAVAWYQQKPGQSPKLLIYSPSYRYTGVPDRFTGSGSGTDFTFTISSVQAEDLAVYYCQQHYSTPWTFGGGTKLEIK | 2.18 | 2.38 | 0.00173 | 727000 | 125 | 0.197 | 6.14 | 3500 | 0.293 | 0.336 |  |  |  |  |  |  |
| Ch5J24 (antibody, human IgG1, V domains shown, also called recombinant anti-TIGIT mouse/human chimera antibody 5J24) VH: QVQLQQSGAELVRPGTSVKMSCKAAGYTFTNHWIGWVKQRPGHGLEWIGDIYPGGGYTNYNEKFKGKATLTADTSSSTAYMYLSSLTSEDSAIYYCARSYGYDLYAMDYWGQGTSVTVSS VL: DIQMTQSPSSLSASLGERVSLTCRASQEISGYLSWLQQKPDGTIKRLIYAASTLGSGVPKRFSGSRSGSDYSLTISSLESEDFADYYCLQYDSYPFTFGAGTKLELK | 0.7 | 3.85 | 0.0214 | 5.57e+06 | 125 | 0.073 | 0.212 | 4500 | 0.117 | 0.131 |  |  |  |  |  |  |
| Ch21B9 (antibody, human IgG1, V domains shown, also called recombinant anti-TIGIT mouse/human chimera antibody 21B9) VH: EVQLVESGGGLVKPGGSLKLSCTASGFTFSSYAMSWVRQSPEKRLEWVAEISSGGSYTYYTDTVTGRFTISRDNAKNTLYLEMSSLRSEDTAMYYCARKRRDYYGMDYWGQGTSVTVSS VL: DVQITQSPSYLAASPGETITINCRASKSISKYLAWYQEKPGKTNKLLIYSGSTLQTGIPSRFSGSGSGTDFTLTISSLEPEDFAMYYCQQHNEYPWTFGGGTKLEIK | 0.8 | 7.1 | 0.074 | 1.05e+07 | 150 | 0.029 | 0.18 | 4500 | 0.062 | 0.102 |  |  |  |  |  |  |
| Ch22B22 (antibody, human IgG1, V domains shown, Expressed in HEK293, purified on Protein A; also called recombinant anti-TIGIT mouse/human chimera antibody 22B22) VH: EVQLVESGGGLVKPGGSLKLSCAASGFTFSSYAMSWVRQSPEKRLEWVAEISSGGSYTYYPDTVTGRFTISRDNAKNTLYLEMSSLRSEDTAMYYCARKRRDYYAMDYWGQGTSVTVSS VL: DVQITQSPSYLAASPGETITINCRASKSISKYLAWYQEKPGKTNKLLIYSGSTLQSGIPSRFSGSGSGTDFTLTISSLEPEDFAMYYCQQHNEYPWTFGGGTKLEIK | 1.16 | 9.78 | 0.0141 | 1.44e+06 | 140 | 0.097 | 0.24 | 5000 | 0.175 | 0.16 |  |  |  |  |  |  |
| Ch21B16 (antibody, human IgG1, V domains shown, also called recombinant anti-TIGIT mouse/human chimera antibody 21B16) VH: EVQLVESGGGLVKPGGSLKLSCAASGFTFSTYAMSWVRQSPEKRLEWVAEISSGGTYTYFPDTVTGRFTISRDNAKNTLYLEMSSLRSEDTAMYYCARKRRDYYAMDYWGQGTSVTVSS VL: DVQITQSPSYLAASPGETITINCRASKSISKYLAWYQEKPGKTNKLLIYSGSTLQSGIPSRFSGSGSGTDFTLTISSLEPEDFAVYYCQQHNEYPWTFGGGTKLEIK | 0.2 | 6.3 | 0.00929 | 1.47e+06 | 180 | 0.119 | 0.42 | 5200 | 0.16 | 0.12 |  |  |  |  |  |  |
| Ch28O12 (antibody, human IgG1, V domains shown, also called recombinant anti-TIGIT mouse/human chimera antibody 28O12) VH: EVQLVESGGGLVKPGGSLKLSCAASGFTFSNYAMSWVRQSPEKRLEWVAEISGGGSYTYHPDTVTGRFTISRDNAKNTLYLEMSSLRSEDTAMYYCARKRRDYYAMDYWGQGTSVTVSS VL: DVQITQSPSYLAASPGETITINCRASKSISKYLAWYQEKPGKTNKLLIYSGSTLQSGIPSRFSGSGSGTDFTLTISSLEPEDFAMYYCQQHNEYPWTFGGGTKLEIK | 0.48 | 0.904 | 0.00113 | 1.26e+06 | 190 | 0.141 | 0.358 | 7200 | 0.249 | 0.159 |  |  |  |  |  |  |
